# Test results taken from the Immune Epitope Database (IEDB).
# Molecular target: HLA-A*02:01
# Experiment: IEDB peptide-MHC binding, purified MHC/competitive/radioactivity; ≥ and ≤ were set here for values at or beyond the usual limits of such assays
# Conditions: source organism: Mycobacterium tuberculosis H37Rv
row,Sequence,IC50
1,GSFVRTVSL,59 µM
2,ELAAEPTEV,1.8 µM
3,QAQTRHPAT,≥ 250 µM
4,ALLALTRAI,0.42 µM
5,HVYAHQAQT,5.5 µM
6,GLWLSVAAV,0.11 µM
7,TEVGQDQYV,≥ 250 µM
8,AYGSFVRTV,13 µM
9,RTVSLPVGA,2.5 µM
10,LTRAILIRV,53 µM
